The target in assay [1] is T1, CD3 epsilon/delta heterodimer protein (human, UniProt P07766 23-126; P04234 22-105).
T1 construct: Capture antigen of the bridging ELISA; also called human CD3; recombinant human CD3 antigen
The assay can be described thus: bridging ELISA, human CD3 coated, bispecific titrated, detection with human Nectin-4-mFc and anti-mouse IgG HRP, tumor pH (pH 6.0 in the protocol); the signal needs both arms. On the procedure:
(§1) 1) Coat ELISA plates with 100 μL of 0.5 μg/mL recombinant human CD3 antigen in carbonate-bicarbonate coating buffer. 2) Cover plates with sealing film and incubate overnight at 4° C. 3) Decant plates and tap out residual liquid on a stack of paper towels. 4) Wash wells twice by dispensing 200 μL of pH 6.0 or pH 7.4 ELISA incubation buffer to the wells and completely aspirate the contents. 5) Add 200 μL of pH 6.0 or pH 7.4 ELISA incubation buffer to the wells. Cover with sealing film and place the plate onto a plate shaker set to 50 rpm for 60 minutes at room temperature. 6) Decant plates and tap out residual liquid on a stack of paper towels. 7) Serially dilute test articles in 3-fold dilutions starting at 3000 ng/mL in pH 6.0 or pH 7.4 ELISA incubation buffer. 8) Add 100 μL/well of diluted test articles to the plates 9) Cover with sealing film and place the plates onto a plate shaker set to 50 rpm for 60 minutes at room temperature. 10) Decant plates and tap out residual liquid on a stack of paper towels. 11) Wash wells three times by dispensing 200 μL of pH 6.0 or pH 7.4 ELISA wash buffer to the wells and completely aspirate the contents. 12) Dilute the HRP secondary antibody at 1:2500 in pH 6.0 or pH 7.4 ELISA incubation buffer. […] Read plates at 450 nm using PerkinElmer, EnSpire 2300 Multilabel Reader.

The next assay deals with T2, human Nectin-4-mFc (human, UniProt Q96NY8 32-349).
T2 construct: extracellular domain; Detection reagent of the bridging ELISA; also called recombinant human Nectin-4 ECD; not shown: mFc (mouse Fc)
T2 sequence (looked up): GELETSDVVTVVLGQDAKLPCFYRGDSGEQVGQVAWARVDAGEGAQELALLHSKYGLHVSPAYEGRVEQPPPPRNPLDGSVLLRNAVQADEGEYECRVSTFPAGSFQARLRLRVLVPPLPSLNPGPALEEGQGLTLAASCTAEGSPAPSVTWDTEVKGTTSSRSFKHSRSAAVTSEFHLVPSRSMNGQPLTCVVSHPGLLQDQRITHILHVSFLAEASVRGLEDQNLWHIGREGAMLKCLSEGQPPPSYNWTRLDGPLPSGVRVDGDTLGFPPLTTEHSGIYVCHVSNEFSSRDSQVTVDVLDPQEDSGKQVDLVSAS
The assay can be described thus: bridging ELISA, human CD3 coated, detection with human Nectin-4-mFc and anti-mouse IgG HRP, tumor pH (pH 6.0 in the protocol).

The target in assay [2] is T1, CD3 epsilon/delta heterodimer protein. The assay can be described thus: bridging ELISA, human CD3 coated, bispecific titrated, detection with human Nectin-4-mFc and anti-mouse IgG HRP, physiological pH (pH 7.4 in the protocol); the signal needs both arms. On the procedure:
as §1

T1 sequence (P07766 23-126, stated change not applied, chain 1 of 2): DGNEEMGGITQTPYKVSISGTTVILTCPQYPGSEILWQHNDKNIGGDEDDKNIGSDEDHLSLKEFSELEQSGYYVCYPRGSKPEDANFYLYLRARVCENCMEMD
T1 sequence (P04234 22-105, stated change not applied, chain 2 of 2): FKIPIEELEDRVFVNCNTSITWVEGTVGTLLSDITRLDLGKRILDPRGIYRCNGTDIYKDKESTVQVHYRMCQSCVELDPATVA

B1: WT Nectin4 × WT CD3 (bispecific antibody)
VH: EVQLVESGGGLVQPGGSLRLSCAASGFTFSSYNMNWVRQAPGKGLEWVSYISSSSSTIYYADSVKGRFTISRDNAKNSLSLQMNSLRDEDTAVYYCARAYYYGMDVWGQGTTVTVSS
light: DIQMTQSPSSVSASVGDRVTITCRASQGISGWLAWYQQKPGKAPKFLIYAASTLQSGVPSRFSGSGSGTDFTLTISSLQPEDFATYYCQQAQSFPPTFGGGTKVEIKRTVAAPSVFIFPPSDEQLKSGTASVVCLLNNFYPREAKVQWKVDNALQSGNSQESVTEQDSKDSTYSLSSTLTLSKADYEKHKVYACEVTHQGLSSPVTKSFNRGECSRSGGGGEVQLVESGGGLVQPGGSLRLSCAASGFTFNTYAMNWVRQAPGKGLEWVARIRSKYNNYATYYADSVKDRFTISRDDSKNSLYLQMNSLKTEDTAVYYCVRHGNFGNSYVSWFAYWGQGTLVTVSSGGSGGSGGSGGSGGQAVVTQEPSLTVSPGGTVTLTCRSSTGAVTTSNYANWVQQKPGQAPRGLIGGTNKRAPWTPARFSGSLLGGKAALTITGAQAEDEADYYCALWYSNLWVFGGGTKLTVLSR
notes: elsewhere it is called a light chain variable region that also carries six anti-CD3 CDRs; also called BA-150-19-01-01-BF1; benchmark
For B1, the “EC50 (read off the curve)” value is roughly 0.05 µg/mL in assay [1] and roughly 0.03 µg/mL in assay [2]. Besides, in the assay with human Nectin-4-mFc, the binding result was “binds”.

B2: CAB Nectin4 × CAB CD3 (bispecific antibody)
VH: EVQLVESGGGLVQPGGSLRLSCAASGFTFSSYNMNWVRQAPGKGLEWVSYISSSSSTIYYADSVKGRFTISRDNAKNSLSLQMNSLRDEDTAVYYCARAYYYGMDKWGQGTTVTVSS
light: DIQMTQSPSSVSASVGDRVTITCRASQGISGWEAWYQQKPGKAPKFLIYAASTLQSGVPSRFSGSGSGTDFTLTISSLQPEDFATYYCQQAQSFPPTFGGGTKVEIKRTVAAPSVFIFPPSDEQLKSGTASVVCLLNNFYPREAKVQWKVDNALQSGNSQESVTEQDSKDSTYSLSSTLTLSKADYEKHKVYACEVTHQGLSSPVTKSFNRGECSRSGGGGEVQLVESGGGLVQPGGSLRLSCAASGFTFNTYAMNWVRQAPGKGLEWVARIRSKYNNYATYYADSVKDRFTISRDDSKNSLYLQMNSLKTEDTAVYYCVRHGNFPNSKVSWFQYWGQGTLVTVSSGGSGGSGGSGGSGGQAVVTQEPSLTVSPGGTVTLTCRSSTGAVTTSNYDNWVQQKPGQAPRGLIGGTNKRAPWTPARFSGSLLGGKAALTITGAQAEDEADYYCALWYSNLWVFGGGTKLTVLSR
notes: elsewhere it is called a light chain variable region that also carries six anti-CD3 CDRs; also called BA-150-30-03-12-BF19
In the case of B2, the results for the “EC50 (read off the curve)” value in assay [1] and in assay [2] were roughly 0.03 µg/mL and roughly 0.2 µg/mL, respectively. In addition, the binding result in the assay with human Nectin-4-mFc is on record as “binds”.

The record behind these values is patent publication US20230235054A1 (BIOATLA, published 2023).
